Here are results for 1 compound from patent US20240285785A1, “TARGETING SORTILIN” (priority 2022, published 2024).

A short description of data set [1]: Murine plasma stability assay. The note with it: mouse, 37° C., read-out: Murine plasma stability assay, T1/2. It counts as in vitro ADME. As for the experimental part:
Frozen plasma was thawed at 37° C. and centrifuged at 4000 rpm to remove any clots and transferred to 96-well reaction plates by WuXi AppTec. Test compounds were added to the reaction plate at a final concentration of 2 μM and either stopped immediately or incubated at 37° C. for 5 minutes, 10 minutes, 30 minutes, 60 minutes, or 120 minutes. At the end of incubation, stop solution consisting of 200 ng/mL tolbutamide and 200 ng/mL labetalol in ACN was added to precipitate protein and mixed thoroughly. Samples were then transferred to a bioanalysis plate and shaken for 10 minutes prior to HPLC-MS/MS analysis of percent remaining compound.

In data set [2] the target is T1, SORT1 (Homo sapiens, UniProt Q99523).
T1 construct: Human SORT1 (78-755)-His (Acrobiosystems); His (C); purchased Acrobiosystems SON—H52H5
T1 sequence (Q99523 78-755): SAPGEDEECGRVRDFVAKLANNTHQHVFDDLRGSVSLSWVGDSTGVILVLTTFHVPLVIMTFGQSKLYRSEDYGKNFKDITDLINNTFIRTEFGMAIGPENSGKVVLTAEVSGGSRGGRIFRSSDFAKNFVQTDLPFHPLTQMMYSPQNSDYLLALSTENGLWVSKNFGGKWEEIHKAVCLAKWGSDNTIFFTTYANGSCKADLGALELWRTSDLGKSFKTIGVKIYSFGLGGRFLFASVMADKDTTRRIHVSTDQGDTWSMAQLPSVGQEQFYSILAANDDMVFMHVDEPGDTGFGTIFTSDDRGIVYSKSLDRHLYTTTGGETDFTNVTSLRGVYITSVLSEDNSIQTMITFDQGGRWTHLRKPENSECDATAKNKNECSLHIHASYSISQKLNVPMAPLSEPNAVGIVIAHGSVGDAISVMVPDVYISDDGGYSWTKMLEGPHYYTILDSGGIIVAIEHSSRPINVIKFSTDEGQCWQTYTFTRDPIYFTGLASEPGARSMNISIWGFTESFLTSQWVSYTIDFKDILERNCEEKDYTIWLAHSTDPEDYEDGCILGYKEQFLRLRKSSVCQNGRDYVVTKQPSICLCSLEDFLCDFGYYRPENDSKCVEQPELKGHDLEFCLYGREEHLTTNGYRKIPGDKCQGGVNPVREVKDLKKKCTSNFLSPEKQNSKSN
Description: Competition binding in FP. The note with it: FP competition binding assays, PDC vs parent peptide. As for the experimental part: Competition binding studies were conducted in a similar manner to the direct binding protocol. Unlabeled peptides were prepared with a 12-point, two-fold dilution series in a V-bottom 96-well plate for a total volume of 25 μL with a starting concentration of 50 μM. A 10× working stock of the FAM labeled peptide was prepared as described for the Direct binding experiment.
An aliquot of 20 μL of the 500 nM working solution was then added to 2.5 μL of the FAM-peptide, after which 2.5 μL of the unlabeled peptide dilution series was added and mixed by pipetting in a V-bottom 96-well plate. Samples were allowed to incubate for 15 minutes, then 10 μL of the mixture was transferred to an opaque black 384-well non-binding FP plate (Corning® Low Volume 384-well Black Flat Bottom Polystyrene NBS Microplate, #3820) in technical duplicates. The 384-well plate was then centrifuged 1 min, 4000 rpm and fluorescence and polarization of dye measured on a Biotek Synergy Neo2 plate reader using the same settings as for the Direct Binding experiment. Data were then fitted to a One site—Fit logIC50 curve in GraphPad to calculate the IC50.

The nature of data set [3]: Murine hematotoxicity assay. It counts as in vivo, BALB/c mice. Conditions: 3 mg/kg i.v. QW×4, compared to vehicle or MMAE treatment. As for the experimental part:
Murine hematotoxicity experiments were conducted at Charles River Laboratories and the care and use of animals was conducted in accordance with the regulations of the Association for Assessment and Accreditation of Laboratory Animal Care (AAALAC). Wild type BALB/c, female, 7-8 weeks, weighing approximately 18-22 g were randomized and dosed intravenously with control or test articles at a QW×4 schedule. Dosing volume was adjusted based on body weight and was administered at 10 mL/Kg. PDCs were dissolved in 25 mM Histidine 10% sucrose pH 7 and 3 mg/kg was administered. Free MMAE payload was also tested, and similarly dissolved in 25 mM Histidine 10% sucrose pH 7 and administered to the mice at a dose of […] by i.v. injection at a QW×4 schedule. 3 days following each dose, 150 μL of whole blood was collected via submandibular method and placed in K2 EDTA tubes stored on ice. Blood neutrophil counts were performed on the day of collection by IDEXX labs. Body weights were recorded twice a week until study endpoint.
As outlined in the material and methods of Example 1, wild type BALB/c, female, 7-8 weeks, weighing approximately 18-22 g were randomized and dosed intravenously with control or test articles at a QW×4 schedule. Dosing volume was adjusted based on body weight and was administered at 10 ml/Kg. […] Free MMAE payload was also tested, and similarly dissolved in 25 mM Histidine 10% sucrose pH 7 and administered to the mice at a dose of […] by i.v. injection at a QW×4 schedule. 3 days following each dose, 150 μL of whole blood was collected via submandibular method and placed in K2 EDTA tubes stored on ice. Blood neutrophil counts were performed on the day of collection by IDEXX labs. Body weights were recorded twice a week until study endpoint.

Data set [4] is described as follows: CMC formulation buffer screen (shake flask solubility). It counts as physicochemical. Conditions: 0.5 mg/mL. As for the experimental part: Exemplary conjugate agents (e.g., sortilin binding agents), referred to in the present Example as “peptide drug conjugates” or “PDCs” were assessed in a formulation screen to determine an appropriate vehicle for in vivo studies and to assess precipitation risk. PDC solutions were made up to 0.5 mg/mL in the following buffers: 25 mM Histidine 10% sucrose pH 7, 50 mM acetate/acetic acid, 10% sucrose pH 5, 1×PBS pH 7.4, Saline, 50 mM HEPES 10% sucrose pH 7. Solubility was assessed using a shake flask method and the test compound concentration of the filtrate was confirmed using HPLC-UV.
The following buffers were screened: 25 mM Histidine 10% sucrose pH 7, 50 mM acetate/acetic acid, 10% sucrose pH 5, 1×PBS pH 7.4, Saline, 50 mM HEPES 10% sucrose pH 7. The PDCs were soluble in all buffers tested (Table 1), and we proceed to use 25 mM Histidine, 10% sucrose pH 7 as our buffer of choice for our in vivo studies.

With `CC[C@H](C)[C@@H]([C@@H](CC(=O)N1CCC[C@H]1[C@H](OC)[C@@H](C)C(=O)N[C@H](C)[C@@H](O)c1ccccc1)OC)N(C)C(=O)[C@@H](NC(=O)[C@H](C(C)C)N(C)C(=O)OCc1ccc(NC(=O)[C@H](CCCNC(N)=O)NC(=O)[C@@H](NC(=O)CCCC(=O)NCCC(=O)N(C)CC(=O)N(C)CC(=O)N(C)CC(=O)N(C)CC(=O)N[C@@H](C)C(=O)N2CCC[C@H]2C(=O)N[C@@H](CCCNC(=N)N)C(=O)N[C@@H](Cc2c[nH]c3ccccc23)C(=O)N[C@@H](CC(=O)O)C(=O)N[C@@H](C)C(=O)N2CCC[C@H]2C(=O)N[C@@H](CC(C)C)C(=O)N[C@@H](CCCNC(=N)N)C(=O)N[C@@H](CC(=O)O)C(=O)N2CCC[C@H]2C(=O)N[C@@H](C)C(=O)N[C@@H](CC(C)C)C(=O)N[C@@H](CCCNC(=N)N)C(=O)N[C@@H](CCC(N)=O)C(=O)N[C@@H](CC(C)C)C(=O)N[C@@H](CC(C)C)C(=O)O)C(C)C)cc1)C(C)C` [PRGN_WT_PDC], in data set [1], the half-life at 2 μM is 17.1 min. The “increase in affinity relative to parent homing peptide” value in data set [2] was about 2.5 ×. Further, the blood neutrophil counts result in data set [3] is given as “reduced neutrophil counts”. For the same compound, the formulation screen result in data set [4] (25 mM Histidine 10% sucrose pH 7) is reported as “clear solution”; in data set [4] (50 mM HEPES 10% sucrose pH 7), “clear solution”; in data set [4] (50 mM acetate/acetic acid, 10% sucrose pH 5), “clear solution”; in data set [4] (1x PBS pH 7.4), “clear solution”; in data set [4] (Saline) it was “clear solution”.
